# Experimental data: IntAct's records for PubMed 18007658
# B1: Protein SLY1 (Saccharomyces cerevisiae), P22213 (parent)
# chain: MAVEEIASRKDISLRDMQISAILKMLFLNKDLNNNDNITTITDDIFNQQEIIWKVLILDIKSTATISSVLRVNDLLKAGITVHSLIKQDRSPLPDVPAIYFVSPTKENIDIIVNDLKSDKYSEFYINFTSSLPRNLLEDLAQQVSITGKSDKIKQVYDQYLDFIVTEPELFSLEISNAYLTLNDPKTTEEEITGLCANIADGLFNTVLTINSIPIIRAAKGGPAEIIAEKLGTKLRDFVINTNSSSTSTLQGNDSLERGVLIILDRNIDFASMFSHSWIYQCMVFDIFKLSRNTVTIPLESKENGTDNTTAKPLATKKYDIEPNDFFWMENSHLPFPEAAENVEAALNTYKEEAAEITRKTGVTNISDLDPNSNNDTVQIQEVVKKLPELTAKKNTIDTHMNIFAALLSQLESKSLDTFFEVEQDPGSTKTRSRFLDILKDGKTNNLEDKLRSFIVLYLTSTTGLPKDFVQNVENYFKENDYDINALKYVYKLREFMQLSNMSLQNKSLEDGSDSAFKPSNLTLSGIYGLTEGKLQGGVGSLISGIKKLLPEKKTIPITNVVDAIMDPLNSSQKNLETTDSYLYIDPKITRGSHTRKPKRQSYNKSLVFVVGGGNYLEYQNLQEWAHSQLHNPKKVMYGSTAITTPAEFLNEISRLGASNSSNNDA
# partner: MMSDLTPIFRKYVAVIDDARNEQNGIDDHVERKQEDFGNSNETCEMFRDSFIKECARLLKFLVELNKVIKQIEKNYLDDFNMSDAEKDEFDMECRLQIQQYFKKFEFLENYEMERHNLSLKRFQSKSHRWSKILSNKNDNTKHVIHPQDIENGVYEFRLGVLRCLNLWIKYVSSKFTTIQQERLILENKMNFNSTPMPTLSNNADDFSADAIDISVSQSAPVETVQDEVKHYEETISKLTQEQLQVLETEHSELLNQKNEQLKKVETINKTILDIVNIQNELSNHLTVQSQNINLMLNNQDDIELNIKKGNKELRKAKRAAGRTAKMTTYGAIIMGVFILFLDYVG
# B2: Syntaxin UFE1 (Saccharomyces cerevisiae), P41834 (parent)
# chain: B1 partner
# partner: B1 chain
# Variants of: B1
# Details: with ufe1_yeast UFE1, P41834
row,effect of a mutation on the interaction,Variant
1,disrupting interaction,L137R

# Variants of: B1
# Details: with ufe1_yeast UFE1, P41834
# Remark: another data set of the same source
row,effect of a mutation on the interaction,Variant
1,decreasing interaction,L137R

# Variants of: B2
# Details: with sly1_yeast SLY1, P22213
row,effect of a mutation on the interaction,Variant
1,disrupting interaction,F9A
